T1: EV-A71 VP1 (capsid protein) (Enterovirus A71) (UniProt Q66478)
T1 sequence: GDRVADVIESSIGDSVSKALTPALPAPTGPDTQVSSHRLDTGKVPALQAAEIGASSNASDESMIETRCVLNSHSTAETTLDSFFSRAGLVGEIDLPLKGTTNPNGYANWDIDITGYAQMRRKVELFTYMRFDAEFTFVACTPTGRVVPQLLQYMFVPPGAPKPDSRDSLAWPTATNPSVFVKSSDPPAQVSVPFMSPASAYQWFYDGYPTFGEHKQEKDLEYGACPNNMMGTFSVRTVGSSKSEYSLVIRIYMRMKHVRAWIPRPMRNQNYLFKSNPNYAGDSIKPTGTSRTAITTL

B1: V11 (ssDNA)
DNA: ACTAAGCCACCGTGTCCACCCTCGCCGAGTTTTCGTAACTATATCTTGTGGTTCCTATTGCTGCGTCACTCTGGAT
modifications: dU at positions 22,30,31,32,33,36,40,42,44,46,47,49,52,53,56,58,59,62,66,70,72,76 (printed 'U, uracil'; every T 3' of the 18-nt primer; whether the dU carries a C5 group is not stated)

Legend:
[1] = biological target: T1, EV-A71 VP1 (capsid protein) (Enterovirus A71); test: ELISA; conditions: 5 mM Mg2+; VP1 coated at 200 ng/mL; unit given as nm; given with U (uracil) mixed with t in a DNA aptamer; U may stand for T; 1x PBS, 5 mM MgCl2, 1% BSA, 1 ug/mL tRNA, 0.02% Tween-20, room temperature, 1 h; pH not stated
[2] = biological target: Bovine serum albumin (Bos taurus (Bovine), UniProt P02769 25-607); test: ELONA; PBS, 5 mM MgCl2, 1% BSA, 1 ug/mL tRNA, 0.02% Tween-20, RT; VP1 coated on plate; conditions: label: 5'-biotin
Sequence of Bovine serum albumin (P02769 25-607): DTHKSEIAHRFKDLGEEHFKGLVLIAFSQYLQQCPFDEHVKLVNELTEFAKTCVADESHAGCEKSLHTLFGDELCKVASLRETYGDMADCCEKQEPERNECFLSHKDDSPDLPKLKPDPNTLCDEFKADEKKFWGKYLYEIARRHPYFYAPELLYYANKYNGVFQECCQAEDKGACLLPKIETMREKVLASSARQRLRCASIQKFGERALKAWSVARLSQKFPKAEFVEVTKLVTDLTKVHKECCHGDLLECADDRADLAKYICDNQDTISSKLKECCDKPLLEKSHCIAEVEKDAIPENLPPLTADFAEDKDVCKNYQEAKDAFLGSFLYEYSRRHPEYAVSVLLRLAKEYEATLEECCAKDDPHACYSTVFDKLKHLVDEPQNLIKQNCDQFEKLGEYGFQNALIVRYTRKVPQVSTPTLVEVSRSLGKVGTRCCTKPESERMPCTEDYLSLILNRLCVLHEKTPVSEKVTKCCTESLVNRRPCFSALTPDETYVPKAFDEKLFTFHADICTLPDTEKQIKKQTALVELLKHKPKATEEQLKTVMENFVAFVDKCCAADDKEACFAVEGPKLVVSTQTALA

Molecule | Kd [1] [nM] | binding result [2]
ACTAAGCCACCGTGTCCACCCUCGCCGAGUUUUCGUAACUAUAUCUUGUGGUUCCUAUUGCUGCGUCACUCUGGAU [V11] | 4.28 | 
ACTAAGCCACCGTGTCCAUCAAUGGUGUGUGCAUUCGUGUGUUGUGUUGUUUGUUGUUUGCUGCGUCACUCUGGAU [V7] | 32.7 | 
ACTAAGCCACCGTGTCCAUUCGAUUCGAUCUAAUUUGGUUCUUUCCUCACUUUUCAGUGCUGCGUCACUCUGGAU [V21] | 4.55 | 
B1 |  | no binding

— article PMC8359077, “DNA aptamer against EV-A71 VP1 protein: selection and application”
